Changes are numbered by the printed parent chain. In names and notes the source's numbering stands.
B1: Antibody I-4P (antibody, human IgG4 S228P, kappa)
heavy: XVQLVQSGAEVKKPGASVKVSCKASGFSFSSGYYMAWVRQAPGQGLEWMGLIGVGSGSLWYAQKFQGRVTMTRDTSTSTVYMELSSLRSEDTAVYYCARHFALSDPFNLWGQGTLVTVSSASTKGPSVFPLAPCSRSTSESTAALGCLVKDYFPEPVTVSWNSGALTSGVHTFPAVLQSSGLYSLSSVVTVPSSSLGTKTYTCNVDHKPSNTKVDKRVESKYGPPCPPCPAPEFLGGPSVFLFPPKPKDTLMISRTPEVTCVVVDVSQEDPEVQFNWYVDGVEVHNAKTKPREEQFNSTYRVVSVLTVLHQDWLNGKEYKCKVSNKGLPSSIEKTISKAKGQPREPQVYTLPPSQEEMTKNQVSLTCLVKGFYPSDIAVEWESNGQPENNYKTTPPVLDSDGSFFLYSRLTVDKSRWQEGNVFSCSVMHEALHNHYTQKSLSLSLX
light: EIVLTQSPDFQSVTPKEKVTITCQASESIDSYLLWYQQKPDQSPKLLIKQASTLASGVPSRFSGSGSGTDFTLTINSLEAEDAATYYCQNYYDISSNDFGGGTKVEIKRTVAAPSVFIFPPSDEQLKSGTASVVCLLNNFYPREAKVQWKVDNALQSGNSQESVTEQDSKDSTYSLSSTLTLSKADYEKHKVYACEVTHQGLSSPVTKSFNRGEC
modifications: Xaa at position 1 is either glutamine or pyroglutamic acid; Xaa at position 446 is either glycine or absent
notes: Humanized IgG4P (S228P), kappa; also called IgG4SP; Antibody I-4P-AF647 (AF647-labelled form used as stain)
B2: Antibody I-IgG1 (antibody)
heavy: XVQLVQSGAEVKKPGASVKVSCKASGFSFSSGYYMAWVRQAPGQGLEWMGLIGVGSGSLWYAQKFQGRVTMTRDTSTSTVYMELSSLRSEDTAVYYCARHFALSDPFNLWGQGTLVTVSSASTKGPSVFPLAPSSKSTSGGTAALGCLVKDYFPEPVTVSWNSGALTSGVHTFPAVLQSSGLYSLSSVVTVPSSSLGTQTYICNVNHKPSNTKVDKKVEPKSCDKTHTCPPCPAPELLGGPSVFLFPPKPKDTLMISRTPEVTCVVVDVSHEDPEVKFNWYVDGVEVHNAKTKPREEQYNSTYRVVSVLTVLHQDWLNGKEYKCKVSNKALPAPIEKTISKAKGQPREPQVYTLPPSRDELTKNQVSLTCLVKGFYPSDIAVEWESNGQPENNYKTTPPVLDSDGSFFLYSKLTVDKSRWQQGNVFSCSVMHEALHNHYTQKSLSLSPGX
light: B1 light
modifications: Xaa at position 1 is either glutamine or pyroglutamic acid; Xaa at position 450 is either lysine or absent
notes: Same HCVR, LCVR and LC as Antibody I-4P; IgG1 heavy chain

Tests used:
[1] = target: T1, human CD200R expressed on cells (human, UniProt Q8TD46 25-348); assay: cell-based or functional assay
T1 chain: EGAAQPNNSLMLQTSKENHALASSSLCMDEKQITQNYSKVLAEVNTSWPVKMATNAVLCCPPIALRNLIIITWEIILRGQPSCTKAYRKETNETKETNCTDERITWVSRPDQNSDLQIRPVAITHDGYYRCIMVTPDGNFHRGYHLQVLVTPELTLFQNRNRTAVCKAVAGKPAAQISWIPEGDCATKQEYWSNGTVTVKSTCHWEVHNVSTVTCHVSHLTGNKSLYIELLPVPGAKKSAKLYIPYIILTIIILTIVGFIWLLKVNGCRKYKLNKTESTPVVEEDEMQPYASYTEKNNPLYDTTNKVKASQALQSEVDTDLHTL

[2] = target: T2, human FcγRIIb extracellular domain (human, UniProt P31994 43-217); assay: SPR at 25 C, antibody captured on Protein A, FcγR ECD analyte, steady state
T2 construct: extracellular domain; also called CD32b
T2 sequence (looked up): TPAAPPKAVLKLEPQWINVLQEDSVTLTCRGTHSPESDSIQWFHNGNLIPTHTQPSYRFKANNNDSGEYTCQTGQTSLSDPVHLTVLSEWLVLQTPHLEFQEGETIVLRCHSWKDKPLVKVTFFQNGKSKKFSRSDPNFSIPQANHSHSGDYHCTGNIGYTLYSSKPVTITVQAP
Method: (§1) Biacore® T100 instrument and Biacore® 3000 (GE Healthcare, Piscataway, NJ), Biacore® reagents and Scrubber2 Biacore® Evaluation Software (Biologics 2008) are used for the SPR analysis of antibody binding. A CM5 chip (Biacore® P/N BR-1006-68) is prepared using the manufacturer's EDC/NHS amine coupling method (Biacore® P/N BR-1000-50). Briefly, the surfaces of all 4 FCs are activated by injecting a 1:1 mixture of EDC/NHS for 7 minutes at 10 μL/minute. Protein A (Calbiochem P/N 539202) is diluted to 100 μg/mL in 10 mM acetate, pH 4.5 buffer and immobilized for approximately 400 RU onto all 4 flow cells by 7 minute injection at a flow rate of 10 μL/minute. Un-reacted sites are blocked with a 7-minute injection of ethanolamine at 10 μL/minute. Injections of 2×10 μL of glycine pH 1.5 are used to remove any non-covalently associated protein.
(§2) For FcγRIIa, FcγRIIb, and FcγRIIIa binding, antibodies are diluted to […] in running buffer, and approximately 500 RU of each variant is captured in flow cells 2 through 4 (RUcaptured). FC1 is the reference flow cell. Fcγ receptor ECDs are diluted to 10 μM in running buffer and then 2 fold serially diluted in running buffer to 39 nM. Duplicate injections of each concentration are injected over all FCs at 40 μL/minute for 60 seconds followed by a 120 second dissociation phase. Regeneration is performed by injecting 15 μL of 10 mM glycine pH 1.5 at 30 μL/min over all FCs.
(§3) Reference-subtracted data is collected as FC2-FC1, FC3-FC1, and FC4-FC1. The measurements are obtained at 25° C. The affinity (KD) is calculated using the steady state equilibrium analysis with the Scrubber 2 Biacore® Evaluation Software.

[3] = target: T3, human FcγRIIIA_158V extracellular domain (human, UniProt P08637 17-208); assay: as above
T3 construct: extracellular domain; Allotype with Val at 158 (numbering as in the label); also called CD16a
T3 sequence (P08637 17-208 F176V): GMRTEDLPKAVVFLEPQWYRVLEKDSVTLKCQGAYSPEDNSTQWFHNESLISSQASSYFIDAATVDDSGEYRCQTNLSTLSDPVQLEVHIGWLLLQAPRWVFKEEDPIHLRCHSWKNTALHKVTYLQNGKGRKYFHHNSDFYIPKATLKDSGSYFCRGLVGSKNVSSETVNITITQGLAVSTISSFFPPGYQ
Method: as §1, §2, §3

[4] = target: T4, human FcγRIIA_131H extracellular domain (human, UniProt P12318 34-217); assay: as above
T4 construct: extracellular domain; also called CD32a
T4 sequence (looked up): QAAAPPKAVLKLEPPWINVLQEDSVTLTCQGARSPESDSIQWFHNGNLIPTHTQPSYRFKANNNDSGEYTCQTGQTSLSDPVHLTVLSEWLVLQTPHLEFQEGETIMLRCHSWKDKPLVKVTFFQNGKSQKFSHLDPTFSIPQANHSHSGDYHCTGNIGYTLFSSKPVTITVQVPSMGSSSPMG
Method: as §1, §2, §3

[5] = target: T5, human FcγRIIA_131R extracellular domain (human, UniProt P12318 34-217); assay: as above
T5 construct: extracellular domain; also called CD32a
T5 sequence (looked up): T4 sequence (looked up) with H134R
Method: as §1, §2, §3

[6] = target: T6, cynomolgus monkey CD200R (purified soluble receptor, SPR analyte) (cynomolgus monkey, UniProt Q8TD46 25-265 (human entry)); assay: SPR at 37 C, antibody captured on Protein A, receptor analyte, 1:1 model; n=3
T6 construct: Purified by IMAC and size exclusion chromatography; also called cyno CD200R
T6 chain: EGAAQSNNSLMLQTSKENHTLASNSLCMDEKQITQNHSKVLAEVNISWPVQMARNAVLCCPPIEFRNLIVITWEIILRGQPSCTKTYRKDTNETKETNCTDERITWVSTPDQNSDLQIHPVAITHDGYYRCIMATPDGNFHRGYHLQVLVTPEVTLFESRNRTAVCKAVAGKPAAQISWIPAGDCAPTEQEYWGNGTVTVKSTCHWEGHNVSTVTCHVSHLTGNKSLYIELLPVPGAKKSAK

[7] = target: T7, human CD200R (purified soluble receptor, SPR analyte) (human, UniProt Q8TD46 29-265, limits assumed); assay: as above
T7 construct: Purified by IMAC and size exclusion chromatography; also called hCD200R; human CD200 receptor
T7 chain: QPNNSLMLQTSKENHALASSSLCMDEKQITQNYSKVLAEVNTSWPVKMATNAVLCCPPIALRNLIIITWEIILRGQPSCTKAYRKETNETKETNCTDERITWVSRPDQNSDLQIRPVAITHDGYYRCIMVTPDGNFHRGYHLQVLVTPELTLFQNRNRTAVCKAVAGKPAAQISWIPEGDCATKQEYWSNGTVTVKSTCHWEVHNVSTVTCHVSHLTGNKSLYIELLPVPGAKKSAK

[8] = target: T8, human FcγRI extracellular domain (human, UniProt P12314 16-292); assay: SPR at 25 C, antibody captured on Protein A, FcγR ECD analyte
T8 construct: extracellular domain; also called CD64
T8 sequence (P12314 16-292): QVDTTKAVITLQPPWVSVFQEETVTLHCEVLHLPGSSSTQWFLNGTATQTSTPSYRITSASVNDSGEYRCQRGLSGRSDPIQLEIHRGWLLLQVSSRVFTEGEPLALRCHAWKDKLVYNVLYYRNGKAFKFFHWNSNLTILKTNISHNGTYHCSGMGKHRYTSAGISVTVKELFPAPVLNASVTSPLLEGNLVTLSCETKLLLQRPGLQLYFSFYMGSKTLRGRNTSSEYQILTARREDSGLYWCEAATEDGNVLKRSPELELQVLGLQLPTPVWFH
Method: as §1
Reference-subtracted data is collected as FC2-FC1, FC3-FC1, and FC4-FC1. The measurements are obtained at 25° C. The affinity (KD) is calculated using either steady state equilibrium analysis with the Scrubber 2 Biacore® Evaluation Software or a “1:1 (Langmuir) binding” model in BIA Evaluation.

[9] = target: T9, human FcγRIIIA_158F extracellular domain (human, UniProt P08637 17-208); assay: SPR at 25 C, antibody captured on Protein A, FcγR ECD analyte, steady state
T9 construct: extracellular domain; Allotype with Phe at 158 (numbering as in the label); also called CD16a
T9 sequence (P08637 17-208): as the sequence (P08637 17-208 F176V) above, with V160F counted along it
Method: as §1, §2, §3

Binder	IC50 of inhibition of IC-stimulated IL-8 release, human CD200R-expressing U937 cells [1] [mg/L]	IC50 of inhibition of immune-complex induced IL-8 secretion, U937 cells expressing human CD200R (average of 3 experiments) [1] [mg/L]	Kd [2] [nM]	Kd [3] [nM]	Kd [4] [nM]	Kd [5] [nM]	Kd [6] [nM]	Kd [7] [nM]	Kd [8] [nM]	Kd [9] [nM]
B1	0.07	0.2	2200	4300	3900	1700	2.3	5.6	0.369	–
B2	–	–	2800	200	500	600	–	–	0.0489	900

Source: patent publication US20220251198A1 (Eli Lilly, published 2022)
